The text below walks through data of patent US20100216659A1.

pKd: −log10 of the molar value.

The target of assay [1] is monomeric gp120 (HIV-1) (HIV-1). Put plainly: yeast display flow cytometry, gp120 titrated in the absence of sCD4, MFI of antigen binding. Background: In flow cytometry, cells or beads pass a laser one at a time.
The target of assay [2] is gp120 pre-complexed with sCD4 (HIV-1). Kind of assay: yeast display flow cytometry, gp120 titrated in the presence of sCD4, MFI of antigen binding.

By pKd is commonly meant −log10 of the Kd, conventionally taken in molar units. Regarding “scFv X5 displayed on yeast (X5-pPNLS in EBY100)”, the pKd in assay [1] was 7.84; in assay [2] it was 8.96.
